Test results reported in patent US20220306744A1 (CRESCENDO BIOLOGICS, published 2022).

Target: T1, human PD-1 expressed on cells (CHO TREX human PD1 cell line, full-length human PD-1 sequence) (human, UniProt Q15116 21-288)
T1 construct: Also used for human PD-1 on Jurkat reporter cells, on PathHunter cells and on PHA-stimulated human CD4+ T cells; also called CHO human PD1 cells; CHO human PD-1 cells
Experiment: worded summary of the screens

T1 sequence (Q15116 21-288): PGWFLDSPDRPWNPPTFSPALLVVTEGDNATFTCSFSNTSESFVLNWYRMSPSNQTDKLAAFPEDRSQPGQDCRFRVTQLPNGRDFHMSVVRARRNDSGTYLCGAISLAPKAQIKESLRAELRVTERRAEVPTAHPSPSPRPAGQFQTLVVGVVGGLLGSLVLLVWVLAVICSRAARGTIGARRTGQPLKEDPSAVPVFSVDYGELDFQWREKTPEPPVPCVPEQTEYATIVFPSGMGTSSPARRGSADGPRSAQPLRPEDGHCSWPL

Binder	binding result
1.2a (VHH) VHH: EVQLVESGGGLVQPGRSLRLSCAASGFTFDDYAMHWVRQAPGKDLEWVSGISWNGGSMGYAASVKGRFTISRDNAKNSLYLQMNSLRAEDTALYYCVKDKGPGLIGSTADYYGLDVWGQGTTVTVSS	binds
1.9a (VHH) VHH: EVQLVESGGGCVQPGRSLRISCAASGFTFDDYAMHWVRQAPGKGREWVSGISWNGGSMGYAESVKGRFTISRDNAKNSLYLQMNSLRAEDSALYYCVKDKGPGLIGSTADYYGMDVWGQGTTVTVSS	binds
1.11a (VHH) VHH: EVQLLESGGGFVQPGRSLRISCAASGFTFDDYAMHWVRQAPGKDLEWVSGISWNGGSMGYAESVKGRFTISRDNAKNSLYLKMNSLRVEDTALYYCVKDKGPGLIGSTADYYGLDVWGQGTTVTVSS	binds
1.4a (VHH) VHH: EVQLLESGGGLVQPGRSLRLSCAASGFTFADYAMHWVRQAPGKGREWVSGISWNGGSMGYAESVKGRFTISRDNAKNSLYLQMNSLRAEDSALYYCVKDKGPGLTGTTADYYGMDVWGQGTTVTVSS	binds
1.103b (VHH) VHH: EVQLVESGGGLVKPGGSLRLSCAASGFTFSDESQTWMRQAPGKGLEWVSYISSGGGVKFYTDSVKGRFTISRDNAKNSLYLQMNSLRAEDTAVYYCAREAPLRLGESPHDAFDISGQGTMVTVSS	binds
1.98b (VHH) VHH: EVQLVESGGGLVKPGGSLRLSCAASGFTFSDKSMTWMRQAPGKGLEWVSYISSGGGVKFYADSVKGRFTISRDNAKNSLYLQMNSLRAEDTAVYYCAREAPLRLGESPHDAFDISGQGTMVTVSS	binds
1.108b (VHH) VHH: EVQLVESGGGLVKPGGSLRLSCAASGFTFSDESATWMRQAPGKGLEWVSYISSGGGVKFYADSVKGRFTISRDNAKNSLYLQMNSLRAEDTAVYYCAREAPLRLGESPHDAFDISGQGTMVTVSS	binds
1.96b (VHH) VHH: EVQLVESGGGLVKPGGSLRLSCAASGFTFSDTSMTWMRQAPGKGLEWVSYISSGGGVKFYADSVKGRFTISRDNAKNSLYLQMNSLRAEDTAVYYCAREAPLRLGESPHDAFDISGQGTMVTVSS	binds
1.105b (VHH) VHH: EVQLVESGGGLVKPGGSLRLSCAASGFTFSDESLTWMRQAPGKGLEWVSYISSGGGVKFYTDSVKGRFTISRDNAKNSLYLQMNSLRAEDTAVYYCAREAPLRLGESPHDAFDISGQGTMVTVSS	binds
1.110b (VHH) VHH: EVQLVESGGGLVKPGGSLRLSCAASGFTFSDESNTWMRQAPGKGLEWVSYISSGGGVKFYADSVKGRFTISRDNAKNSLYLQMNSLRAEDTAVYYCAREAPLRLGESPHDAFDISGQGTMVTVSS	binds
1.101b (VHH) VHH: EVQLVESGGGLVKPGGSLRLSCAASGFTFSDFSMTWMRQAPGKGLEWVSYISSGGGVKFYADSVKGRFTISRDNAKNSLYLQMNSLRAEDTAVYYCAREAPLRLGESPHDAFDISGQGTMVTVSS	binds
1.97b (VHH) VHH: EVQLVESGGGLVKPGGSLRLSCAASGFTFSDISMTWMRQAPGKGLEWVSYISSGGGVKFYADSVKGRFTISRDNAKNSLYLQMNSLRAEDTAVYYCAREAPLRLGESPHDAFDISGQGTMVTVSS	binds
1.99b (VHH) VHH: EVQLVESGGGLVKPGGSLRLSCAASGFTFSDRSMTWMRQAPGKGLEWVSYISSGGGVKFYADSVKGRFTISRDNAKNSLYLQMNSLRAEDTAVYYCAREAPLRLGESPHDAFDISGQGTMVTVSS	binds
1.112b (VHH) VHH: EVQLVESGGGLVKPGGSLRLSCAASGFTFSDESITWMRQAPGKGLEWVSYISSGGGVKFYADSVKGRFTISRDNAKNSLYLQMNSLRAEDTAVYYCAREAPLRLGESPHDAFDISGQGTMVTVSS	binds
1.109b (VHH) VHH: EVQLVESGGGLVKPGGSLRLSCAASGFTFSDESFTWMRQAPGKGLEWVSYISSGGGVKFYADSVKGRFTISRDNAKNSLYLQMNSLRAEDTAVYYCAREAPLRLGESPHDAFDISGQGTMVTVSS	binds

Further lines, results first:

binding result	Binder
binds	1.5a (VHH) VHH: EVQLVESGGGLVQPGRSLRLSCAASGFTFDDYAMHWVRQAPGKGLEWVSGISWNGGSMGYADSVKDRFTISRDNAKNSLYLQMNRLRAEDTALYYCVKDKGPGLIGSTADYHGLDVWGQGTTVTVSS
binds	1.8a (VHH) VHH: EVQLVESGGGLVQPGRSLRLSCAASGFTFDDYAMHWVRQAPGKGLEWVSGISWNSGSMGYADSVKDRFTISRDNAKNSLYLQMNSLRAEDTALYYCVKDKGPGLIGSTADYHGLDVWGQGTTVTVSS
binds	1.3a (VHH) VHH: EVQLLESGGGLVQPGRSLRLSCAASGFTFDDYAMHWVRQAPGKGREWVSGISWNSGSMGYADSVKDRFTISRDNAKNSLYLQMNSLRAEDTALYYCVKDKGPGLIGSTADYHGLDVWGQGTTVTVSS
binds	1.12a (VHH) VHH: QVQLVESGGGLVQPGRSLRLSCAASGFTFDDYAMHWVRQAPGKGREWVSGISWNGGSMGYADSVKDRFTISRDNAKNSLYLQMNSLRAEDTALYYCVKDKGPGLTGSTADYHGMDVWGQGTTVTVSS
binds	1.10a (VHH) VHH: EVQLVESGGGLVQPGRSLRLSCAASGFTFADYAMHWVRQAPGKGREWVSGISWNGGSMGYAESVKGRFTISRDNAKNSLYLQMNSLRAEDSALYYCVKDKGPGLTGTTADYYGMDVWGQGTTVTVSS
binds	1.93b (VHH) VHH: EVQLVESGGGLVKPGGSLRLSCAASGFTFSDASMTWMRQAPGKGLEWVSYISSGGGVKFYADSVKGRFTISRDNAKNSLYLQMNSLRAEDTAVYYCAREAPLRLGESPHDAFDISGQGTMVTVSS
binds	1.95b (VHH) VHH: EVQLVESGGGLVKPGGSLRLSCAASGFTFSDGSMTWMRQAPGKGLEWVSYISSGGGVKFYADSVKGRFTISRDNAKNSLYLQMNSLRAEDTAVYYCAREAPLRLGESPHDAFDISGQGTMVTVSS
binds	1.94b (VHH) VHH: EVQLVESGGGLVKPGGSLRLSCAASGFTFSDWSMTWMRQAPGKGLEWVSYISSGGGVKFYADSVKGRFTISRDNAKNSLYLQMNSLRAEDTAVYYCAREAPLRLGESPHDAFDISGQGTMVTVSS
binds	1.100b (VHH) VHH: EVQLVESGGGLVKPGGSLRLSCAASGFTFSDLSMTWMRQAPGKGLEWVSYISSGGGVKFYADSVKGRFTISRDNAKNSLYLQMNSLRAEDTAVYYCAREAPLRLGESPHDAFDISGQGTMVTVSS
binds	1.114b (VHH) VHH: EVQLVESGGGLVKPGGSLRLSCAASGFTFSDESHTWMRQAPGKGLEWVSYISSGGGVKFYADSVKGRFTISRDNAKNSLYLQMNSLRAEDTAVYYCAREAPLRLGESPHDAFDISGQGTMVTVSS
binds	1.111b (VHH) VHH: EVQLVESGGGLVKPGGSLRLSCAASGFTFSDESWTWMRQAPGKGLEWVSYISSGGGVKFYADSVKGRFTISRDNAKNSLYLQMNSLRAEDTAVYYCAREAPLRLGESPHDAFDISGQGTMVTVSS
binds	1.102b (VHH) VHH: EVQLVESGGGLVKPGGSLRLSCAASGFTFSDESVTWMRQAPGKGLEWVSYISSGGGVKFYTDSVKGRFTISRDNAKNSLYLQMNSLRAEDTAVYYCAREAPLRLGESPHDAFDISGQGTMVTVSS
binds	1.104b (VHH) VHH: EVQLVESGGGLVKPGGSLRLSCAASGFTFSDESFTWMRQAPGKGLEWVSYISSGGGVKFYTDSVKGRFTISRDNAKNSLYLQMNSLRAEDTAVYYCAREAPLRLGESPHDAFDISGQGTMVTVSS
binds	1.115b (VHH) VHH: EVQLVESGGGLVKPGGSLRLSCAASGFTFSDESGTWMRQAPGKGLEWVSYISSGGGVKFYADSVKGRFTISRDNAKNSLYLQMNSLRAEDTAVYYCAREAPLRLGESPHDAFDISGQGTMVTVSS
binds	1.107b (VHH) VHH: EVQLVESGGGLVKPGGSLRLSCAASGFTFSDESYTWMRQAPGKGLEWVSYISSGGGVKFYTDSVKGRFTISRDNAKNSLYLQMNSLRAEDTAVYYCAREAPLRLGESPHDAFDISGQGTMVTVSS
binds	1.113b (VHH) VHH: EVQLVESGGGLVKPGGSLRLSCAASGFTFSDESSTWMRQAPGKGLEWVSYISSGGGVKFYADSVKGRFTISRDNAKNSLYLQMNSLRAEDTAVYYCAREAPLRLGESPHDAFDISGQGTMVTVSS
binds	1.106b (VHH) VHH: EVQLVESGGGLVKPGGSLRLSCAASGFTFSDESKTWMRQAPGKGLEWVSYISSGGGVKFYTDSVKGRFTISRDNAKNSLYLQMNSLRAEDTAVYYCAREAPLRLGESPHDAFDISGQGTMVTVSS
